# According to publication PMC3749136 (PLoS ONE, 2013):
# Biological target: T1, JAK1 JH1 domain (UniProt P23458 875-1153)
# T1 construct: JAK1, JH1 (kinase) domain; also called JAK1 kinase (JH1) domain; active JAK1 JH1 domain
# Assay: SPR; SOCS5 175-244 immobilised by amine coupling on a CM5 chip; JAK JH1 domains (62.5 nM to 2 µM) injected; 10 mM HEPES pH 8.0, 200 mM NaCl, 3.0 mM EDTA, 0.05% Tween20; steady-state fit, apparent KD; BIAcore3000
# Conditions: both partners purified
# T1 sequence (P23458 875-1153): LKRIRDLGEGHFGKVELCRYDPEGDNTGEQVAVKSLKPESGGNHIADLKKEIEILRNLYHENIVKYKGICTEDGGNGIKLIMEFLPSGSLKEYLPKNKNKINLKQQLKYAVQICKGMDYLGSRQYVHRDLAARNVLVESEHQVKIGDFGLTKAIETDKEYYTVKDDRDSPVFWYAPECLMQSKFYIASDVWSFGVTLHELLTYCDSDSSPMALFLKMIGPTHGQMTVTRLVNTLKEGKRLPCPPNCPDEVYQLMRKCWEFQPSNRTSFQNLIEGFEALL
binder,measurement,value
"SOCS5 175–244 fragment (domain or fragment, mouse, UniProt O54928 175-244, looked up, SOCS5, mouse, residues 175-244 (region conserved in SOCS4); Mass by LC-MS 8103 Da; also called JIR; source: E. coli BL21 (DE3), GST fusion purified on glutathione-Sepharose 4B, cleaved with TEV, RP-HPLC; not shown: GST, N-terminal, cleaved) RSLRQRLQDTVGLCFPMRTYSKQSKPLFSNKRKIHLSELMLEKCPFPAGSDLAQKWHLIKQHTAPVSPHS",Kd,500 nM
